These results are taken from PMC3167946 (Vaccine, 2011).

This assay deals with Envelope glycoprotein gp120Bal (HIV-1 isolate BaL (subtype B), clone …, UniProt Q6TAP7, strain). Description: ELISA. For orientation: ELISA stands for enzyme-linked immunosorbent assay.

B1: human mature b12 scFv (scFv, V domains shown)
VH: QVQLVQSGAEVKKPGASVKVSCQASGYRFSNFVIHWVRQAPGQRFEWMGWINPYNGNKEFSAKFQDRVTFTADTSANTAYMELRSLRSADTAVYYCARVGPYSWDDSPQDNYYMDVWGKGTTVIVSS
VL: EIVLTQSPGTLSLSPGERATFSCRSSHSIRSRRVAWYQHKPGQAPRLVIHGVSNRASGISDRFSGSGSGTDFTLTITRVEPEDFALYYCQVYGASSYTFGQGTKLERK
Consider B1, for which a half-maximal response (EC50) required 300 pM.
